Reference: patent publication EP1230262B1 (BROWN UNIVERSITY RESEARCH FOUNDATION, dated 2017)

B1: decorin proteoglycan (core and side chains), recombinant, vaccinia system (other, UniProt P07585 31-359, looked up)
chain: DEASGIGPEVPDDRDFEPSLGPVCPFRCQCHLRVVQCSDLGLDKVPKDLPPDTTLLDLQNNKITEIKDGDFKNLKNLHALILVNNKISKVSPGAFTPLVKLERLYLSKNQLKELPEKMPKTLQELRAHENEITKVRKVTFNGLNQMIVIELGTNPLKSSGIENGAFQGMKKLSYIRIADTNITSIPQGLPPSLTELHLDGNKISRVDAASLKGLNNLAKLGLSFNSISAVDNGSLANTPHLRELHLDNNKLTRVPGGLAEHKYIQVVYLHNNNISVVGSSDFCPPGHNTKKASYSGVSLFSNPVQYWEIQPSTFRCVYVRSAIQLGNYK
modifications: glycosaminoglycan side chain
notes: also called DEC-PG; DECPG
B2: decorin core (no side chains), recombinant, vaccinia system (other, UniProt P07585 31-359, looked up)
chain: B1 chain
B3: γ-sarcoglycan, recombinant human, 35S-labelled, in vitro transcribed and translated (other, UniProt Q13326 1-291, looked up)
chain: MVREQYTTATEGICIERPENQYVYKIGIYGWRKRCLYLFVLLLLIILVVNLALTIWILKVMWFSPAGMGHLCVTKDGLRLEGESEFLFPLYAKEIHSRVDSSLLLQSTQNVTVNARNSEGEVTGRLKVGPKMVEVQNQQFQINSNDGKPLFTVDEKEVVVGTDKLRVTGPEGALFEHSVETPLVRADPFQDLRLESPTRSLSMDAPRGVHIQAHAGKIEALSQMDILFHSSDGMLVLDAETVCLPKLVQGTWGPSGSSQSLYEICVCPDGKLYLSVAGVSTTCQEHNHICL
modifications: 35S label; not glycosylated
notes: also called gamma-sarcoglycan

Key:
Assay in all cases: overlay assay with 35S in vitro translated sarcoglycan
[1] = biological target: T1, α-sarcoglycan, recombinant human, 35S-labelled, in vitro transcribed and translated (human, UniProt Q16586 1-387, limits assumed, 35S label; not glycosylated)
T1 construct: also called alpha-sarcoglycan
T1 sequence (looked up): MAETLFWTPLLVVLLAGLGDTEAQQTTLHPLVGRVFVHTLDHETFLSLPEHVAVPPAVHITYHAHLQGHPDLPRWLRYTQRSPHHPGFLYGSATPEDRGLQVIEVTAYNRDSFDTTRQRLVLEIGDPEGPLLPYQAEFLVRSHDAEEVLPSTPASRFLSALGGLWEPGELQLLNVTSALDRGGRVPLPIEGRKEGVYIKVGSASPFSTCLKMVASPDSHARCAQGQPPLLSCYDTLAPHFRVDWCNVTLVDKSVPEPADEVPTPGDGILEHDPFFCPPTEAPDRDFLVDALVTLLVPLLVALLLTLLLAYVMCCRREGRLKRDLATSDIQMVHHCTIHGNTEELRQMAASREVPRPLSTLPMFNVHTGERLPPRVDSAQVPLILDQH

[2] = biological target: B2
[3] = biological target: B1

Binder	binding result [1]	binding result [2]	binding result [3]
B1	no binding	–	–
B2	no binding	–	–
B3	–	no binding	no binding
